This assay concerns the target T1, 重组人CD24蛋白 (human, UniProt P25063 27-59, limits assumed).
T1 construct: also called 重组人CD24抗原
T1 chain (looked up): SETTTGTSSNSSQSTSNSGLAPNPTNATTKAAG
Briefly: indirect ELISA, recombinant human CD24 coated at 0.5 ug/mL, antibody 0.08-2.5 nM, goat anti-human IgG detection. Background: In an ELISA, binding on a coated surface is turned into a signal by an enzyme label.

B1: CD24单克隆抗体cG7 (antibody, human IgG1, V domains shown)
VH: QVKLEESGGGLVQPGGSLKISCAASGFDFSRYWMSWVRQAPGKGLEWIGEINPDSSTINYTPSLRDKFIISRDNAKNTLYLQMSKVRYEDTSLYYCARQGDYWGQGTSVTVSS
VL: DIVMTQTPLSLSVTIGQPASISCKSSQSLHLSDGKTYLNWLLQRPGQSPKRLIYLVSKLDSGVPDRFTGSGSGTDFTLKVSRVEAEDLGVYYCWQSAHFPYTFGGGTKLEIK
notes: also called 亲本CD24单克隆抗体cG7; CD24嵌合抗体
Take B1: the EC50 – broadly, the concentration that produces a half-maximal response – stood at 152 pM.

B2: 带有工程化半胱氨酸的CD24单克隆抗体cG7SV (antibody, V domains shown)
VH: B1 VH
VL: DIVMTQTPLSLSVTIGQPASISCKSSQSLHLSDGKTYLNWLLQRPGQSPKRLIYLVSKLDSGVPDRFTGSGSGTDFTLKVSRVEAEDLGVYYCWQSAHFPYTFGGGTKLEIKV
notes: also called 带有工程化半胱氨酸的CD24嵌合抗体
For the molecule B2, the EC50 was 153 pM.
